Experimental data from the supplement of paper PMC9112550, “Optimization of the antimicrobial peptide Bac7 by deep mutational scanning” (BMC Biology, 2022).

tested on: Escherichia coli TOP10; test: shrunken log2 fold change of peptide-encoding DNA abundance (4.5 h post-induction vs induction); higher = less antimicrobial activity (less host growth inhibition); conditions: time post-induction: 4.5 h; library: site-saturation at positions 5, 18, 19, 20
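Note: peptides expressed intracellularly from a pBAD plasmid library in pooled LB shake-flask culture, induced with 0.3% L-arabinose, DNA abundance read by NGS, three biological replicates, DESeq2 with apeglm shrinkage.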

Sequence	shrunken log2 fold change
RRIRMRPPRLPRPRPRPMVTPRP	0.131
RRIRMRPPRLPRPRPRPMWFPRP	0.233
RRIRMRPPRLPRPRPRPMYFPRP	0.178
RRIRMRPPRLPRPRPRPMYGPRP	0.0383
RRIRMRPPRLPRPRPRPMYLPRP	-0.0638
RRIRMRPPRLPRPRPRPNALPRP	0.313
RRIRMRPPRLPRPRPRPNCNPRP	0.675
RRIRMRPPRLPRPRPRPNDIPRP	-0.0213
RRIRMRPPRLPRPRPRPNDVPRP	-0.00114
RRIRMRPPRLPRPRPRPNEEPRP	-0.0651
RRIRMRPPRLPRPRPRPNEQPRP	0.37
RRIRMRPPRLPRPRPRPNFLPRP	-0.0651
RRIRMRPPRLPRPRPRPNHEPRP	0.0645
RRIRMRPPRLPRPRPRPNIHPRP	-0.144
RRIRMRPPRLPRPRPRPNILPRP	0.057
RRIRMRPPRLPRPRPRPNITPRP	0.314
RRIRMRPPRLPRPRPRPNLCPRP	0.015
RRIRMRPPRLPRPRPRPNLSPRP	-0.436
RRIRMRPPRLPRPRPRPNLTPRP	0.0283
RRIRMRPPRLPRPRPRPNMPPRP	-0.286
RRIRMRPPRLPRPRPRPNNAPRP	-0.0978
RRIRMRPPRLPRPRPRPNNGPRP	0.0562
RRIRMRPPRLPRPRPRPNNQPRP	-0.0328
RRIRMRPPRLPRPRPRPNPEPRP	0.406
RRIRMRPPRLPRPRPRPNQDPRP	-0.123

Sequence	shrunken log2 fold change
RRIRMRPPRLPRPRPRPNQQPRP	0.0339
RRIRMRPPRLPRPRPRPNQSPRP	0.176
RRIRMRPPRLPRPRPRPNQTPRP	-0.0789
RRIRMRPPRLPRPRPRPNSQPRP	-0.075
RRIRMRPPRLPRPRPRPNSYPRP	-0.0962
RRIRMRPPRLPRPRPRPNTTPRP	0.191
RRIRMRPPRLPRPRPRPNVDPRP	0.0854
RRIRMRPPRLPRPRPRPNVKPRP	-0.0702
RRIRMRPPRLPRPRPRPNWFPRP	-0.607
RRIRMRPPRLPRPRPRPNYEPRP	-0.122
RRIRMRPPRLPRPRPRPNYHPRP	-0.525
RRIRMRPPRLPRPRPRPPCDPRP	0.506
RRIRMRPPRLPRPRPRPPCIPRP	-0.143
RRIRMRPPRLPRPRPRPPCNPRP	0.0147
RRIRMRPPRLPRPRPRPPDFPRP	0.549
RRIRMRPPRLPRPRPRPPDHPRP	0.456
RRIRMRPPRLPRPRPRPPENPRP	-0.0255
RRIRMRPPRLPRPRPRPPFPPRP	0.671
RRIRMRPPRLPRPRPRPPHHPRP	0.527
RRIRMRPPRLPRPRPRPPHPPRP	0.873
RRIRMRPPRLPRPRPRPPIMPRP	0.0866
RRIRMRPPRLPRPRPRPPIPPRP	0.556
RRIRMRPPRLPRPRPRPPKEPRP	-0.0231
RRIRMRPPRLPRPRPRPPKNPRP	1.18
RRIRMRPPRLPRPRPRPPLQPRP	0.661

Sequence	shrunken log2 fold change
RRIRMRPPRLPRPRPRPPPTPRP	1.97
RRIRMRPPRLPRPRPRPPQCPRP	0.566
RRIRMRPPRLPRPRPRPPQEPRP	0.161
RRIRMRPPRLPRPRPRPPQGPRP	0.834
RRIRMRPPRLPRPRPRPPQWPRP	0.982
RRIRMRPPRLPRPRPRPPRNPRP	1.27
RRIRMRPPRLPRPRPRPPRVPRP	1.23
RRIRMRPPRLPRPRPRPPSDPRP	1.06
RRIRMRPPRLPRPRPRPPSKPRP	0.557
RRIRMRPPRLPRPRPRPPVPPRP	1.01
RRIRMRPPRLPRPRPRPPYCPRP	0.0371
RRIRMRPPRLPRPRPRPPYNPRP	-0.575
RRIRMRPPRLPRPRPRPQAEPRP	3.28
RRIRMRPPRLPRPRPRPQCNPRP	0.041
RRIRMRPPRLPRPRPRPQCQPRP	-0.0148
RRIRMRPPRLPRPRPRPQDQPRP	0.228
RRIRMRPPRLPRPRPRPQDWPRP	0.00698
RRIRMRPPRLPRPRPRPQEDPRP	-0.0231
RRIRMRPPRLPRPRPRPQEQPRP	0.186
RRIRMRPPRLPRPRPRPQFSPRP	0.0281
RRIRMRPPRLPRPRPRPQFTPRP	0.095
RRIRMRPPRLPRPRPRPQGMPRP	0.0363
RRIRMRPPRLPRPRPRPQHFPRP	0.00913
RRIRMRPPRLPRPRPRPQHIPRP	-0.103
RRIRMRPPRLPRPRPRPQHRPRP	0.0767
